Source: article PMC10424212

Settings: ubiquitination at K57

Substance: ALKBH5: K57R (purified FLAG-tagged protein, in vitro demethylation assay)
- enzymatic_activity: no change

Substance: ALKBH5: K57R
- degradation_or_half_life: increases
